Data as given in US20150273048A1.

Molecular target: M2e4x-PR8HA fusion protein (four tandem repeats of M2e fused to A/PR8 HA) on recombinant M2e4x-PR8HA influenza virus (influenza A/PR/8/34 (H1N1)) (UniProt P03452)
Experiment: ELISA on serially coated inactivated virus

Substance: Influenza A virus M2 monoclonal antibody 14C2 (Abcam Inc., Cambridge, Mass.)
- coating concentration at which reactivity was detected (ng/100 µl/well): 20
- fold M2e reactivity relative to parental wild type A/PR8 virus: 250 fold
